Test results from US6403637B1, “Methods of modulating matrix metalloproteinase activity and uses thereof” (priority 1999, dated 2002).

Test system: UMR 106-01 rat osteosarcoma cells
Assay: Binding of 125I-labeled proteinases to UMR 106-01 cells
Settings: 125I-labeled ligand 8 nM; means ± SEM for triplicate wells

B1: Human MMP-2: human 72 kDa gelatinase (MMP-2) (protein, UniProt P08253 110-660, looked up)
72 kDa type IV collagenase: YNFFPRKPKWDKNQITYRIIGYTPDLDPETVDDAFARAFQVWSDVTPLRFSRIHDGEADIMINFGRWEHGDGYPFDGKDGLLAHAFAPGTGVGGDSHFDDDELWTLGEGQVVRVKYGNADGEYCKFPFLFNGKEYNSCTDTGRSDGFLWCSTTYNFEKDGKYGFCPHEALFTMGGNAEGQPCKFPFRFQGTSYDSCTTEGRTDGYRWCGTTEDYDRDKKYGFCPETAMSTVGGNSEGAPCVFPFTFLGNKYESCTSAGRSDGKMWCATTANYDDDRKWGFCPDQGYSLFLVAAHEFGHAMGLEHSQDPGALMAPIYTYTKNFRLSQDDIKGIQELYGASPDIDLGTGPTPTLGPVTPEICKQDIVFDGIAQIRGEIFFFKDRFIWRTVTPRDKPMGPLLVATFWPELPEKIDAVYEAPQEEKAVFFAGNEYWIYSASTLERGYPKPLTSLGLPPDVQRVDAAFNWSKNKKTYIFAGDKFWRYNEVKKKMDPGFPKLIADAWNAIPDNLDAVVDLQGGGHSYFFKGAYYLKLENQSLKSVKFGSIKSDWLGC
In the case of B1, the Specific binding is reported as 0.0 ± 0.0 fmol/2.6 × 10^5 cells.
